Source: IntAct's records for PubMed 19549854

B1: [PIN+] prion protein RNQ1 (Saccharomyces cerevisiae), P25367 (parent)
chain: MDTDKLISEAESHFSQGNHAEAVAKLTSAAQSNPNDEQMSTIESLIQKIAGYVMDNRSGGSDASQDRAAGGGSSFMNTLMADSKGSSQTQLGKLALLATVMTHSSNKGSSNRGFDVGTVMSMLSGSGGGSQSMGASGLAALASQFFKSGNNSQGQGQGQGQGQGQGQGQGQGSFTALASLASSFMNSNNNNQQGQNQSSGGSSFGALASMASSFMHSNNNQNSNNSQQGYNQSYQNGNQNSQGYNNQQYQGGNGGYQQQQGQSGGAFSSLASMAQSYLGGGQTQSNQQQYNQQGQNNQQQYQQQGQNYQHQQQGQQQQQGHSSSFSALASMASSYLGNNSNSNSSYGGQQQANEYGRPQQNGQQQSNEYGRPQYGGNQNSNGQHESFNFSGNFSQQNNNGNQNRY

Variants of: B1
Conditions: with mas5_yeast YDJ1, P25491
Sequence of mas5_yeast YDJ1, P25491 (P25491 whole entry): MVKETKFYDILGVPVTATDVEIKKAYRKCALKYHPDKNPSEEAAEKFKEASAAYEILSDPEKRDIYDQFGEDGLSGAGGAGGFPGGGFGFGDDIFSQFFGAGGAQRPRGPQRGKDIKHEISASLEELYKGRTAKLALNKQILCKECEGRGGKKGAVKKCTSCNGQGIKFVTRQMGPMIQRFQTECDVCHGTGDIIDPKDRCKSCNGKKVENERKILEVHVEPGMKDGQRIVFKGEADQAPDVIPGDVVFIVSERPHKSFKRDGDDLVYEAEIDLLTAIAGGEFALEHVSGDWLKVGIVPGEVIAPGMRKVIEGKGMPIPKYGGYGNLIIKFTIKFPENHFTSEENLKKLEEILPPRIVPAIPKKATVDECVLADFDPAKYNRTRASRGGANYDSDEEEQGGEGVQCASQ

| Variant | effect of a mutation on the interaction |
| --- | --- |
| MDTDKLISEAESHFSQGNHAEAVAKLTSAAQSNPNDEQMSTIESLIQKIAGYVMDNRSGGSDASQDRAAGGGSSFMNTLMADSKGSSQTQLGKLALLATVMTHSSNKGSSNRGFDVGTVMSMLSGSGGGSQSMGASGLAALASQFFKSGNNSQGQGQGQGQGQGQGQGQGQGSFTALASLASSFMNSNNNNQQGQNQSSGGSSFGALASMASSFMHSNNNQNSNNSQQGYNQSYQNGNQNSQGYNNQQYQGGYGGYQQQQGQSGGAFSSLASMAQSYLGGGQTQSNQQQYNQQGQNNQQQYQQQGQNYQHQQQGQQQQQGHSSSFSALASMASSYLGNNSNSNSSYGGQQQANEYGRPQQNGQQQSNEYGRPQYGGNQNSNGQHESFNFSGNFSQQNNNGNQNRY [N253Y] | disrupting interaction |
| MDTDKLISEAESHFSQGNHAEAVAKLTSAAQSNPNDEQMSTIESLIQKIAGYVMDNRSGGSDASQDRAAGGGSSFMNTLMADSKGSSQTQLGKLALLATVMTHSSNKGSSNRGFDVGTVMSMLSGSGGGSQSMGASGLAALASQFFKSGNNSQGQGQGQGQGQGQGQGQGQGSFTALASLASSFMNSNNNNQQGQNQSSGGSSFGALASMASSFMHSNNNQNSNNSQQGYNQSYQNGNQNSQGYNNQQYQGGNGGYYQQQGQSGGAFSSLASMAQSYLGGGQTQSNQQQYNQQGQNNQQQYQQQGQNYQHQQQGQQQQQGHSSSFSALASMASSYLGNNSNSNSSYGGQQQANEYGRPQQNGQQQSNEYGRPQYGGNQNSNGQHESFNFSGNFSQQNNNGNQNRY [Q257Y] | disrupting interaction |
